Data on three molecules can be found in paper PMC8887749, “The interaction of dengue virus capsid protein with negatively charged interfaces drives the in vitro assembly of nucleocapsid-like particles”.

Broadly, the stoichiometry N is the number of molecules, sites or subunits per partner or assembly.

For data set [1], the target named is Dengue virus capsid (C) protein, recombinant DENVC (dengue virus serotype 2) (UniProt P29990). As to the kind of experiment: SAXS.
For data set [2], the target named is DENV capsid protein (DENVC) (Dengue virus serotype 2, UniProt P29990 1-100). As to the kind of experiment: fluorescence anisotropy; FITC-DENVC 50 nM; 1:1 DENVC:oligo stoichiometry; affinity stated only as nanomolar range; 55 mM NaH2PO4, 200 mM NaCl, 5 mM EDTA, pH 7.4, 25 C. As to conditions: protein: recombinant; chain copies: 2; single strand. On the technique in general: Fluorescence polarisation rises when a labelled molecule tumbles more slowly, as on binding a larger partner.
DENV capsid protein (DENVC), sequence (P29990 1-100): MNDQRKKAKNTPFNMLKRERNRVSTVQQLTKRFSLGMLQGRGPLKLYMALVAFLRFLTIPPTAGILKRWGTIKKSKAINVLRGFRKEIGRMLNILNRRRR

Dengue virus capsid (C) protein, recombinant DENVC, sequence (P29990 1-100): as above

In the case of “Dengue virus capsid (C) protein, recombinant DENVC (from UniProt P29990 1-100) (natural protein)”, in data set [1], the stoichiometry N was found to be 2.

GGGGG (ssDNA) [5-mer ssDNA]: the binding result in data set [2] is given as “binds”.

With TCCATGGTAGACAGAGGATGGGGGA (ssDNA) [25-mer ssDNA], the binding result in data set [2] is reported as “binds”.
